The labels stand for the following.
B1: OR4K15 (parent)
chain: GUUAACGGUCAUAGGCCAUGGAAACUAGGAGCACCAUUUCGCUGCCAGUGAAGAAAUGAACAAAGAAAAUCUGGGCCAGGCAGGCAUCAAAAGAAAUAGUCUUGCGCUCAACCAGAAAGUCUGUAAUCAUUUUAAGGGUA

The data set covers variants of B1. Put plainly: self-cleavage, relative activity (ratio to wild type); higher = more cleavage; in vitro, sequencing; the parent is a self-cleaving ribozyme.
With U57A A62U, the self-cleavage was determined as 2.46.

On to G31A A54G, for which the self-cleavage is 1.21.

On to U3A A23G, for which the self-cleavage stood at 1.17.

A62G A95G: the self-cleavage was found to be 2.2.

In the case of A111G A129G, the self-cleavage is 0.01.

Turning to U132C A135U, the self-cleavage stood at 2.17.

In the case of U9C U19C, the self-cleavage came to 1.77.

For the variant C34U U70C, the self-cleavage was found to be 0.23.

As for A114U G137U, the self-cleavage was 0.3.

For the variant U37A A114U, the self-cleavage was found to be 0.06.

On to G7U U97A, for which the self-cleavage worked out at 1.41.

Consider A55G A129C, for which the self-cleavage is 0.72.

Turning to G15A U108A, the self-cleavage was determined as 0.01.

For the variant U70C G123A, the self-cleavage was found to be 1.18.

As for A95G C105U, the self-cleavage was found to be 0.43.

As to G41A U122G, the self-cleavage was determined as 1.51.

Turning to A59U A86G, the self-cleavage came to 0.7.

As to G119A A129U, the self-cleavage was found to be 0.67.

As to C16A U102C, the self-cleavage worked out at 1.49.

Regarding A51U A78G, the self-cleavage is 0.26.

Take A4G: the self-cleavage stood at 0.87.

As to C6U G106U, the self-cleavage came out at 0.06.

Turning to A23U A69G, the self-cleavage was 1.02.

Consider U3C A89G, for which the self-cleavage turned out to be 0.99.

Regarding U2C A67U, the self-cleavage was determined as 0.85.

With A60U A118U, the self-cleavage amounted to 0.99.

With A23U A94G, the self-cleavage turned out to be 1.18.

Turning to A68U A82U, the self-cleavage is 0.25.

On to U39C G115U, for which the self-cleavage was 0.04.

As to A22G C113U, the self-cleavage stood at 0.14.

Turning to A33U A64G, the self-cleavage was determined as 1.31.

A55G A63G: the self-cleavage is 1.43.

Turning to A22G A114G, the self-cleavage came out at 0.69.

As to U19C A63G, the self-cleavage was determined as 0.89.

As for U12C A51G, the self-cleavage was determined as 0.87.

On to A33U U38C, for which the self-cleavage is 2.

For U9C C81U, the self-cleavage is 0.36.

Regarding A47U A134G, the self-cleavage was found to be 1.24.

As to A94G A129G, the self-cleavage was 1.29.

Consider G1A C40U, for which the self-cleavage came out at 1.78.

On to U38C A135U, for which the self-cleavage stood at 1.86.

With A5U A63G, the self-cleavage was 1.2.

For U2A A89U, the self-cleavage was 1.2.

For the variant A18U U87C, the self-cleavage turned out to be 1.41.

C17U U131C: the self-cleavage was determined as 0.73.

As to A89U A111G, the self-cleavage was found to be 0.03.

Regarding A86G A98U, the self-cleavage came out at 1.73.

U87C U130C: the self-cleavage came to 0.55.

Turning to A116G U124A, the self-cleavage worked out at 0.69.

As for A63G A110U, the self-cleavage is 1.88.

Turning to A18G U19A, the self-cleavage stood at 1.57.

On to U12C U120C, for which the self-cleavage is 0.75.

Turning to A59G U70A, the self-cleavage is 0.56.

For U38C A55G, the self-cleavage was found to be 0.93.

Turning to U26C A78G, the self-cleavage amounted to 0.21.

With A56G A63G, the self-cleavage stood at 0.85.

As for A78G U97C, the self-cleavage was 0.38.

Consider A5G U57A, for which the self-cleavage is 1.09.

As to A23G A66G, the self-cleavage worked out at 1.02.

Consider A69G A78U, for which the self-cleavage turned out to be 0.33.

Regarding A91U A98G, the self-cleavage is 0.61.

With A23U A63G, the self-cleavage came to 0.92.

U70C A78G: the self-cleavage was 0.26.

In the case of A5G A134U, the self-cleavage came to 1.24.

C10U U120C: the self-cleavage was 1.12.

Consider C10A G44A, for which the self-cleavage turned out to be 1.2.

As to A13G U38C, the self-cleavage was 1.14.

As for C40A A91G, the self-cleavage came to 1.76.

With U49G U72A, the self-cleavage worked out at 0.32.

Regarding A82G A111G, the self-cleavage came to 0.04.

As to U43A U103C, the self-cleavage was 1.1.

With C46U U132C, the self-cleavage is 1.97.

Consider A67U, for which the self-cleavage was 1.54.

Regarding A5G A33C, the self-cleavage was determined as 1.28.

With U102A, the self-cleavage is 0.74.

Turning to A116G G136U, the self-cleavage is 0.74.

Regarding U49G U130A, the self-cleavage was 0.36.

As to G7A A96G, the self-cleavage stood at 2.05.

As for A4U A36U, the self-cleavage came out at 1.62.

As for G20U U130C, the self-cleavage came out at 1.04.

For the variant U57C U72C, the self-cleavage came out at 0.04.

On to A23U A68G, for which the self-cleavage is 1.45.

A5U A111G: the self-cleavage amounted to 0.06.

For the variant A33C, the self-cleavage was determined as 1.35.

As to A54G A60U, the self-cleavage turned out to be 1.59.

Regarding C107A A118U, the self-cleavage turned out to be 0.

Consider G1A A4G, for which the self-cleavage was 0.54.

In the case of U124C G137C, the self-cleavage came to 0.78.

Turning to G73A A129G, the self-cleavage amounted to 0.07.

As for A23G A47U, the self-cleavage was found to be 0.77.

Regarding A24G A89U, the self-cleavage was determined as 1.41.

As to A18G U103G, the self-cleavage was found to be 0.05.

For the variant A33G U100A, the self-cleavage turned out to be 0.28.

C6U A125G: the self-cleavage is 0.53.

For A91G C109U, the self-cleavage was 0.4.

U12C U19A: the self-cleavage turned out to be 1.05.

In the case of A82G A118G, the self-cleavage is 0.14.

In the case of A4G A86G, the self-cleavage was 0.72.

In the case of C81U A82G, the self-cleavage is 0.14.

As to A117U U124A, the self-cleavage was 0.27.

On to A52U A55U, for which the self-cleavage is 1.62.

With A92G U122G, the self-cleavage is 2.31.

In the case of A126G U131C, the self-cleavage is 1.14.

Regarding U57C A129U, the self-cleavage was found to be 1.47.

Take C34A A116U: the self-cleavage is 0.51.

On to A69U A140U, for which the self-cleavage was 2.31.

For the variant A86G A94G, the self-cleavage turned out to be 1.47.

Consider C35U A98U, for which the self-cleavage came out at 1.52.

As for A86G A117G, the self-cleavage was 1.45.

A66G A114G: the self-cleavage came out at 0.48.

As to A13G A36U, the self-cleavage amounted to 0.67.

On to A98G U139G, for which the self-cleavage was 0.86.

As to A54G A67G, the self-cleavage came to 1.57.

Take U2C A66C: the self-cleavage stood at 0.66.

As for A95G A125G, the self-cleavage came to 1.02.

As to A22G A59G, the self-cleavage came to 1.07.

Turning to C40U A63G, the self-cleavage amounted to 2.13.

For the variant U2C, the self-cleavage was determined as 0.88.

On to A96C A126G, for which the self-cleavage was 0.77.

As to U70A A111G, the self-cleavage was 0.04.

In the case of A126G, the self-cleavage amounted to 0.84.

Consider U3C C101U, for which the self-cleavage was 0.51.

For the variant C32U U130C, the self-cleavage worked out at 1.26.

Consider C6U U37C, for which the self-cleavage was found to be 1.08.

On to U57C A67G, for which the self-cleavage turned out to be 0.83.

For the variant U43A A118G, the self-cleavage is 1.25.

For U37C A56G, the self-cleavage came out at 0.73.

For U12A U26C, the self-cleavage is 2.17.

For the variant C6A A116G, the self-cleavage was 0.77.

For A63U U130C, the self-cleavage was 0.28.

Regarding A78U U120G, the self-cleavage stood at 0.37.

For the variant C76A G104A, the self-cleavage came out at 0.03.

Consider U19G A94G, for which the self-cleavage was found to be 1.02.

With A18G G138A, the self-cleavage came to 1.27.

As for U49C U87C, the self-cleavage is 1.58.

As for A22G U131C, the self-cleavage is 0.51.

In the case of A60U U70C, the self-cleavage was found to be 1.72.

As to A62U U120A, the self-cleavage was found to be 2.24.

As for U72A U133C, the self-cleavage was determined as 0.29.

As to A60U A98G, the self-cleavage is 0.39.

As to A47U G84U, the self-cleavage was found to be 0.25.

With U19C U87A, the self-cleavage is 1.48.

With A67G C113U, the self-cleavage came out at 0.17.

As to U127C A129G, the self-cleavage was 0.46.

For the variant A67G G99U, the self-cleavage worked out at 0.62.

As for C107U A118G, the self-cleavage was found to be 0.

For the variant A33U U108C, the self-cleavage turned out to be 0.05.

As to U9C U122A, the self-cleavage was 1.06.

On to A69G U72A, for which the self-cleavage is 0.19.

Consider A111G A116U, for which the self-cleavage was 0.04.

With A114U U120C, the self-cleavage worked out at 0.03.

Take C42U A117G: the self-cleavage is 2.46.

With G14U A52U, the self-cleavage was 1.71.

Take A54G A114U: the self-cleavage amounted to 0.07.

As for U3A A18G, the self-cleavage was determined as 1.11.

Turning to A67G A126U, the self-cleavage came to 0.87.

As to A11G U120A, the self-cleavage turned out to be 0.58.

In the case of U3C G84C, the self-cleavage stood at 0.37.

Turning to U9A A51G, the self-cleavage worked out at 1.66.

G31A U130C: the self-cleavage amounted to 1.91.

Take A11U G58U: the self-cleavage stood at 0.86.

On to A66U A114U, for which the self-cleavage was determined as 0.04.

For the variant A18G A134U, the self-cleavage turned out to be 1.88.

Consider U43A U108C, for which the self-cleavage is 0.02.

C6U A96G: the self-cleavage worked out at 1.1.

For the variant C35U U38C, the self-cleavage is 0.61.

As for A92U A114U, the self-cleavage was determined as 0.14.

The record behind these values is the RNAGym collection of RNA variant scans (doi:10.7554/elife.90254).
